Measurements reported in patent US20180142030A1 (Bristol-Myers Squibb, published 2018).

T1: FcγRIIa-R131 (human, UniProt P12318 34-218, limits assumed)
T1 construct: Construct not described
T1 sequence (looked up): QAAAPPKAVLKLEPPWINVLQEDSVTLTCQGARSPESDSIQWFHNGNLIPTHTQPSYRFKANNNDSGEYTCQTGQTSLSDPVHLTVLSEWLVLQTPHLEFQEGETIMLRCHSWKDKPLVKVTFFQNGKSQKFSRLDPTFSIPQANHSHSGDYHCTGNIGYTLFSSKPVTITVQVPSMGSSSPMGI

T2: FcγRIIb (human, UniProt P31994 43-217, limits assumed)
T2 construct: Construct not described; also called hCD32b/FcγRIIb
T2 sequence (looked up): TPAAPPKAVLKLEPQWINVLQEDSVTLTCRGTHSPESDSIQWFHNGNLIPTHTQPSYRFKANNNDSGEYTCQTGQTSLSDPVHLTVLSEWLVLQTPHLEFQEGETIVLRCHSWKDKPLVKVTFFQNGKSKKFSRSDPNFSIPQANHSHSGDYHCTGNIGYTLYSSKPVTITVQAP

T3: FcγRIIa-H131 (human, UniProt P12318 34-218, limits assumed)
T3 construct: Construct not described; also called hCD32a/FcγRIIa-H131
T3 sequence (looked up): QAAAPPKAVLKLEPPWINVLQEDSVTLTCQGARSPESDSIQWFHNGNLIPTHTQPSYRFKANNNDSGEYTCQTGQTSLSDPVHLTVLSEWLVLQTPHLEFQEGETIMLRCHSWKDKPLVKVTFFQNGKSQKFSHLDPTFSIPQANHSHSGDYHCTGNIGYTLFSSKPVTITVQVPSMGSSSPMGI


How the values were obtained:
[1] = target: T1, FcγRIIa-R131; assay: BLI (ForteBio Octet), %Rmax at 10 µM FcγRIIa-R131 (CD32a-R131 on the sheet)
Experimental: (§1) See Example 8. Antibody names including “-sup” represent supernatants from antibody producing cells, whereas others are purified antibodies. Data are presented as percentages of a maximum receptor binding value for each combination of antibody and receptor, as measured in a ForteBio Octet system. See, e.g., Example 3. Each cluster of three bars represents, from left to right, binding to hCD32a/FcγRIIa-H131 (10 μM) (hatched bars), […] (10 μM) (black bars), and hCD32b/FcγRIIb (1 μM) (white bars).
(§2) Supernatants were obtained from cells expressing these antibodies and assayed for binding to hCD32/FcγRII. Selected purified antibodies without mutations at position 270 were used as controls.

[2] = target: T2, FcγRIIb; assay: BLI (ForteBio Octet), %Rmax at 1 µM hCD32b/FcγRIIb
Experimental: as §1, §2

[3] = target: T3, FcγRIIa-H131; assay: BLI (ForteBio Octet), %Rmax at 10 µM hCD32a/FcγRIIa-H131
Experimental: as §1, §2

| binding result [1] | binding result [2] | binding result [3] | Binder |
| --- | --- | --- | --- |
| binds | binds |  | 5F11-45 V4 D270E (antibody, human IgG1, kappa, also called 5F11-45 D270E V4) heavy: QVQLVQSGAEVKKPGSSVKVSCKASGYTFTDLSMHWVRQAPGQGLEWMGYITPSSGYTAYNQKFKGKTTLTADKSTSTAYMELSSLRSEDTAVYYCARLILQRGAYWGQGTLVTVSSASTKGPSVFPLAPSSKSTSGGTAALGCLVKDYFPEPVTVSWNSGALTSGVHTFPAVLQSSGLYSLSSVVTVPSSSLGTQTYICNVNHKPSNTKVDKRVEPKSCDKTHTCPPCPAPELLGGDSVFLFPPKPKDTLMISRTPEVTCVVVDVSHEEGEVKFNWYVDGVEVHNAKTKPREEQYNSTYRVVSVLTVLHQDWLNGKEYKCKVSNKALPAPIEKTISKAKGQPREPQVYTLPPSREEMTKNQVSLTCLVKGFYPSDIAVEWESNGQPENNYKTTPPVLDSDGSFFLYSKLTVDKSRWQQGNVFSCSVMHEALHNHYTQKSLSLSPG light: DIVLTQSPDSLAVSLGERATINCRASKNVDSYGNSFMHWYQQKPGQPPKLLIYRASNLESGVPDRFSGSGSGTDFTLTISSLQAEDVAVYYCQQSNEDPLTFGQGTKLEIKRTVAAPSVFIFPPSDEQLKSGTASVVCLLNNFYPREAKVQWKVDNALQSGNSQESVTEQDSKDSTYSLSSTLTLSKADYEKHKVYACEVTHQGLSSPVTKSFNRGEC |
| binds | binds |  | 5F11-45-V9-DT-sup (antibody, human IgG1, kappa, Tested as supernatant of antibody-producing cells; also called 5F11-45 V9 D270T) heavy chain: QVQLVQSGAEVKKPGSSVKVSCKASGYTFTDLSMHWVRQAPGQGLEWMGYITPSSGYTAYNQKFKGKTTLTADKSTSTAYMELSSLRSEDTAVYYCARLILQRGAYWGQGTLVTVSSASTKGPSVFPLAPSSKSTSGGTAALGCLVKDYFPEPVTVSWNSGALTSGVHTFPAVLQSSGLYSLSSVVTVPSSSLGTQTYICNVNHKPSNTKVDKRVEPKSCDKTHTCPPCPAPELLGDDSVFLFPPKPKDTLMISRTPEVTCVVVDVSHETGEVKFNWYVDGVEVHNAKTKPREEQYNSTYRVVSVLTVLHQDWLNGKEYKCKVSNKALPRPIEKTISKAKGQPREPQVYTLPPSREEMTKNQVSLTCLVKGFYPSDIAVEWESNGQPENNYKTTPPVLDSDGSFFLYSKLTVDKSRWQQGNVFSCSVMHEALHNHYTQKSLSLSPG light chain: DIVLTQSPDSLAVSLGERATINCRASKNVDSYGNSFMHWYQQKPGQPPKLLIYRASNLESGVPDRFSGSGSGTDFTLTISSLQAEDVAVYYCQQSNEDPLTFGQGTKLEIKRTVAAPSVFIFPPSDEQLKSGTASVVCLLNNFYPREAKVQWKVDNALQSGNSQESVTEQDSKDSTYSLSSTLTLSKADYEKHKVYACEVTHQGLSSPVTKSFNRGEC |
| binds | binds | binds | 12D6-24 V9 (antibody, human IgG1, kappa) heavy: QVQLVQSGAEVKKPGASVKVSCKASGYTFTGYNMNWVRQAPGQGLEWMGNIDPYYGNTNYNQKFKGRVTMTTDTSTSTAYMELRSLRSDDTAVYYCARLGLQLYALDYWGQGTTVTVSSASTKGPSVFPLAPSSKSTSGGTAALGCLVKDYFPEPVTVSWNSGALTSGVHTFPAVLQSSGLYSLSSVVTVPSSSLGTQTYICNVNHKPSNTKVDKRVEPKSCDKTHTCPPCPAPELLGDDSVFLFPPKPKDTLMISRTPEVTCVVVDVSHEDGEVKFNWYVDGVEVHNAKTKPREEQYNSTYRVVSVLTVLHQDWLNGKEYKCKVSNKALPRPIEKTISKAKGQPREPQVYTLPPSREEMTKNQVSLTCLVKGFYPSDIAVEWESNGQPENNYKTTPPVLDSDGSFFLYSKLTVDKSRWQQGNVFSCSVMHEALHNHYTQKSLSLSPG light: DIVMTQTPLSLPVTPGEPASISCRSSQSLVHSNANTYLHWYLQKPGQSPQLLIYKLTNRFFGVPDRFSGSGSGTDFTLKISRVEAEDVGVYYCSQSIHVPWTFGGGTKVEIKRTVAAPSVFIFPPSDEQLKSGTASVVCLLNNFYPREAKVQWKVDNALQSGNSQESVTEQDSKDSTYSLSSTLTLSKADYEKHKVYACEVTHQGLSSPVTKSFNRGEC |
| binds | binds | binds | 12D6-24 V9 D270E (antibody, human IgG1, kappa) heavy: QVQLVQSGAEVKKPGASVKVSCKASGYTFTGYNMNWVRQAPGQGLEWMGNIDPYYGNTNYNQKFKGRVTMTTDTSTSTAYMELRSLRSDDTAVYYCARLGLQLYALDYWGQGTTVTVSSASTKGPSVFPLAPSSKSTSGGTAALGCLVKDYFPEPVTVSWNSGALTSGVHTFPAVLQSSGLYSLSSVVTVPSSSLGTQTYICNVNHKPSNTKVDKRVEPKSCDKTHTCPPCPAPELLGDDSVFLFPPKPKDTLMISRTPEVTCVVVDVSHEEGEVKFNWYVDGVEVHNAKTKPREEQYNSTYRVVSVLTVLHQDWLNGKEYKCKVSNKALPRPIEKTISKAKGQPREPQVYTLPPSREEMTKNQVSLTCLVKGFYPSDIAVEWESNGQPENNYKTTPPVLDSDGSFFLYSKLTVDKSRWQQGNVFSCSVMHEALHNHYTQKSLSLSPG light: DIVMTQTPLSLPVTPGEPASISCRSSQSLVHSNANTYLHWYLQKPGQSPQLLIYKLTNRFFGVPDRFSGSGSGTDFTLKISRVEAEDVGVYYCSQSIHVPWTFGGGTKVEIKRTVAAPSVFIFPPSDEQLKSGTASVVCLLNNFYPREAKVQWKVDNALQSGNSQESVTEQDSKDSTYSLSSTLTLSKADYEKHKVYACEVTHQGLSSPVTKSFNRGEC |
| binds | binds | binds | 12D6-24-V9-DA-sup (antibody, Tested as supernatant of antibody-producing cells; also called 12D6-24 V9 D270A; copies: 2 + 2) heavy: QVQLVQSGAEVKKPGASVKVSCKASGYTFTGYNMNWVRQAPGQGLEWMGNIDPYYGNTNYNQKFKGRVTMTTDTSTSTAYMELRSLRSDDTAVYYCARLGLQLYALDYWGQGTTVTVSSASTKGPSVFPLAPSSKSTSGGTAALGCLVKDYFPEPVTVSWNSGALTSGVHTFPAVLQSSGLYSLSSVVTVPSSSLGTQTYICNVNHKPSNTKVDKRVEPKSCDKTHTCPPCPAPELLGDDSVFLFPPKPKDTLMISRTPEVTCVVVDVSHEAGEVKFNWYVDGVEVHNAKTKPREEQYNSTYRVVSVLTVLHQDWLNGKEYKCKVSNKALPRPIEKTISKAKGQPREPQVYTLPPSREEMTKNQVSLTCLVKGFYPSDIAVEWESNGQPENNYKTTPPVLDSDGSFFLYSKLTVDKSRWQQGNVFSCSVMHEALHNHYTQKSLSLSPG light: DIVMTQTPLSLPVTPGEPASISCRSSQSLVHSNANTYLHWYLQKPGQSPQLLIYKLTNRFFGVPDRFSGSGSGTDFTLKISRVEAEDVGVYYCSQSIHVPWTFGGGTKVEIKRTVAAPSVFIFPPSDEQLKSGTASVVCLLNNFYPREAKVQWKVDNALQSGNSQESVTEQDSKDSTYSLSSTLTLSKADYEKHKVYACEVTHQGLSSPVTKSFNRGEC |
| binds | binds |  | 12D6-24 V4 D270E (antibody, human IgG1, kappa) heavy: QVQLVQSGAEVKKPGASVKVSCKASGYTFTGYNMNWVRQAPGQGLEWMGNIDPYYGNTNYNQKFKGRVTMTTDTSTSTAYMELRSLRSDDTAVYYCARLGLQLYALDYWGQGTTVTVSSASTKGPSVFPLAPSSKSTSGGTAALGCLVKDYFPEPVTVSWNSGALTSGVHTFPAVLQSSGLYSLSSVVTVPSSSLGTQTYICNVNHKPSNTKVDKRVEPKSCDKTHTCPPCPAPELLGGDSVFLFPPKPKDTLMISRTPEVTCVVVDVSHEEGEVKFNWYVDGVEVHNAKTKPREEQYNSTYRVVSVLTVLHQDWLNGKEYKCKVSNKALPAPIEKTISKAKGQPREPQVYTLPPSREEMTKNQVSLTCLVKGFYPSDIAVEWESNGQPENNYKTTPPVLDSDGSFFLYSKLTVDKSRWQQGNVFSCSVMHEALHNHYTQKSLSLSPG light: DIVMTQTPLSLPVTPGEPASISCRSSQSLVHSNANTYLHWYLQKPGQSPQLLIYKLTNRFFGVPDRFSGSGSGTDFTLKISRVEAEDVGVYYCSQSIHVPWTFGGGTKVEIKRTVAAPSVFIFPPSDEQLKSGTASVVCLLNNFYPREAKVQWKVDNALQSGNSQESVTEQDSKDSTYSLSSTLTLSKADYEKHKVYACEVTHQGLSSPVTKSFNRGEC |
| binds | binds |  | 12D6-24-V9-DT-sup (antibody, Tested as supernatant of antibody-producing cells; also called 12D6-24 V9 D270T; copies: 2 + 2) heavy: QVQLVQSGAEVKKPGASVKVSCKASGYTFTGYNMNWVRQAPGQGLEWMGNIDPYYGNTNYNQKFKGRVTMTTDTSTSTAYMELRSLRSDDTAVYYCARLGLQLYALDYWGQGTTVTVSSASTKGPSVFPLAPSSKSTSGGTAALGCLVKDYFPEPVTVSWNSGALTSGVHTFPAVLQSSGLYSLSSVVTVPSSSLGTQTYICNVNHKPSNTKVDKRVEPKSCDKTHTCPPCPAPELLGDDSVFLFPPKPKDTLMISRTPEVTCVVVDVSHETGEVKFNWYVDGVEVHNAKTKPREEQYNSTYRVVSVLTVLHQDWLNGKEYKCKVSNKALPRPIEKTISKAKGQPREPQVYTLPPSREEMTKNQVSLTCLVKGFYPSDIAVEWESNGQPENNYKTTPPVLDSDGSFFLYSKLTVDKSRWQQGNVFSCSVMHEALHNHYTQKSLSLSPG light: DIVMTQTPLSLPVTPGEPASISCRSSQSLVHSNANTYLHWYLQKPGQSPQLLIYKLTNRFFGVPDRFSGSGSGTDFTLKISRVEAEDVGVYYCSQSIHVPWTFGGGTKVEIKRTVAAPSVFIFPPSDEQLKSGTASVVCLLNNFYPREAKVQWKVDNALQSGNSQESVTEQDSKDSTYSLSSTLTLSKADYEKHKVYACEVTHQGLSSPVTKSFNRGEC |
